Measurements: patent publication US20130330346A1 (Novartis, published 2013)
Changes are numbered by the printed parent chain. Read-outs that look alike come from different tables or passages of the source. Ends that are not written are not given here.

T1: Human CXCR2 (human, UniProt P25025 1-360)
T1 sequence: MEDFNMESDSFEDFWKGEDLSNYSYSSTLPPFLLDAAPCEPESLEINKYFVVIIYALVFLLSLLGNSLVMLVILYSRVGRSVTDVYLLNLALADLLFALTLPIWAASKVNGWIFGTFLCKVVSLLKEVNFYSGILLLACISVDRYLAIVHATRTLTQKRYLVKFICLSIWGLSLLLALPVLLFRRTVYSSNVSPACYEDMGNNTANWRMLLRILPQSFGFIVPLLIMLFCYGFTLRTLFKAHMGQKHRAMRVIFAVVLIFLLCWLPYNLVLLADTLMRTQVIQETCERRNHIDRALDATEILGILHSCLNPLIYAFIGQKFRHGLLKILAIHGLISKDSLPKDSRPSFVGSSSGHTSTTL

T2: Cynomolgus CXCR2 (cynomolgus, UniProt Q28519 3-353 (rhesus entry))
T2 chain: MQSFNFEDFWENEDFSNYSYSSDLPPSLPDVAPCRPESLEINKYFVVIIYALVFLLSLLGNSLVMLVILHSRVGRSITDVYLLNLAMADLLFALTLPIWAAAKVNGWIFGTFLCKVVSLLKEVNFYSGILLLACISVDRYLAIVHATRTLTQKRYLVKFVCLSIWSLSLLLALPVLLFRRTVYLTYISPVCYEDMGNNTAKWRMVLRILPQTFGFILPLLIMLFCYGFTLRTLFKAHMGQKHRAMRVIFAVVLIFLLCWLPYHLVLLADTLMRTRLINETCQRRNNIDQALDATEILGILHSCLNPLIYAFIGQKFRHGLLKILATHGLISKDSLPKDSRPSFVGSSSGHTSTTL

T3: Human 1to19 peptide (human)
T3 construct: First 19 N-terminal amino acids of human CXCR2, captured on neutravidin; also called human CXCR2 1 to19 peptide; 1-19 Nter peptide
T3 peptide: MEDFNMESDSFEDFWKGED-biotin

B1: CXCR20059 (VHH)
VHH: EVQLLESGGGLVQPGGSLRLSCAASGSILTINAMGWYRQAPGKQRELVVRRTRGGSTTYQDSVKGRFTISADISKKTMYLQMNSLRPEDTAVYYCLLDDRGGVYWGQGTLVTVSS
B2: 2B2 (VHH)
VHH: B1 VHH with L5V, G10E, S74A, R86K, L96M, L110Q
notes: Tested as periplasmic extract (pAX50) and as purified His6-tagged protein (pAX100); also called 002B02; not shown: C-terminal c-myc tag and His6 tag coded by the vector
B3: CXCR20063 (VHH)
VHH: B1 VHH with K76N
B4: CXCR20026 (bispecific antibody)
chain: EVQLVESGGGLVQPGGSLRLSCVASGRIFSSNAMGWFRQAPGKEREFVAAITWRSGGSAYYADSAKGRFTISRDNAKNTVYLQMNSLKPEDTAVYYCAAGGSSWLSFPPDYWGQGTQVTVSSGGGGSGGGGSGGGGSGGGGSGGGGSGGGGSGGGGSEVQLVESGGGLVQAGESLRLSCAASGSTFDFKVMGWYRQPPGKQREGVAAIRLSGNMHYAESVKGRFTISKANAKNTVYLQMNSLRPEDTAVYYCKVNIRGQDYWGQGTQVTVSS
notes: Biparatopic: two VHH joined by a GlySer linker; also called 163E3-35GS-127D1; 163E3-127D1; not shown: C-terminal c-myc tag and His6 tag coded by pAX100
B5: 97A9 (VHH)
VHH: EVQLVESGGGLVQPGGSLRLSCVASGSIVRINTMGWYRQTPGKQRELVADITSGGNINYIDAVKGRFTISRDNTKNTVYLQMNSLKPEDTAVYYCNAEIVVLVGVWTQRARTGNYWGQGTQVTVSS
notes: Tested as periplasmic extract (pAX50) and as purified His6-tagged protein (pAX100); also called 097A09; not shown: C-terminal c-myc tag and His6 tag coded by the vector

Assays:
Human CXCR2 [1] = target: T1, Human CXCR2; experiment: cell-based or functional assay
Cynomolgus CXCR2 [2] = target: T2, Cynomolgus CXCR2; experiment: cell-based or functional assay
Human CXCR2 [3] = target: T1, Human CXCR2; experiment: FACS hGro-α competition
Cynomolgus CXCR2 [4] = target: T2, Cynomolgus CXCR2; experiment: FACS hGro-α competition
Human CXCR2 [5] = target: T1, Human CXCR2; experiment: FACS competition vs 3 nM FMAT-Blue Gro-α
Procedure: (§1) Purified monovalent anti-CXCR2Nanobodies were titrated against 3 nM FMAT-Blue-labeled Gro-α in the FACS ligand competition assay on human and cynomolgus CXCR2 (Table 10). On human CXCR2, blocking potencies range between double digit nM and sub-nM whereas on cynomolgus CXCR2, they range between single and double digit nM.

Cynomolgus CXCR2 [6] = target: T2, Cynomolgus CXCR2; experiment: FACS competition vs 3 nM FMAT-Blue Gro-α
Procedure: as §1

Human CXCR2 [7] = target: T1, Human CXCR2; experiment: cell-based or functional assay; remark: listed apart in the source
Cynomolgus CXCR2 [8] = target: T2, Cynomolgus CXCR2; experiment: cell-based or functional assay
Human CXCR2 [9] = target: T1, Human CXCR2; experiment: cell-based or functional assay; remark: listed apart in the source
Cynomolgus CXCR2 [10] = target: T2, Cynomolgus CXCR2; experiment: cell-based or functional assay
Human CXCR2 [11] = target: T1, Human CXCR2; experiment: FACS, periplasmic extract vs FMAT Blue Gro-α
Procedure: Periplasmic extracts (as described above) were analyzed on FACS for competition with Gro-α in binding to human CXCR2. 2×10⁵ cells were incubated with a ½ dilution of periplasmic extracts in FACS buffer (PBS+10% fetal bovine serum (Sigma, F7524)) for 30 minutes at 4° C. Then, an equal volume of 6 nM of FMAT Blue-labeled human Gro-α in FACS buffer was added and incubation was continued for another 30 minutes at 4° C. in the dark. Cells were then washed three times in FACS buffer and finally resuspended in FACS buffer. Dead cells were stained with propidium iodide (Sigma, P4170). Samples were then analyzed on a FACSarray (BD Biosciences).

Human 1to19 peptide = target: T3, Human 1to19 peptide; experiment: ELISA, periplasmic extract on biotinylated peptide
Procedure: In another setup, periplasmic extracts were analyzed for binding to human 1 to 19 peptide by ELISA. MaxiSorb plates (Nunc, 430341) were coated for two hours with neutravidin followed by one hour blocking (PBS, 1% casein). Then 100 nM biotinylated human 1 to 19 peptide was added to these plates for one hour (PBS, 0.1% casein, 0.05% tween20) followed by one hour incubation with 10-fold dilutions of periplasmic extracts. Unbound periplasmic extracts were washed away (PBS supplemented with 0.05% tween20) and bound Nanobodies were detected using mouse anti-myc (Roche, 11667149001) followed by rabbit anti-mouse-HRP conjugate (Dakocytomation, P0260). Table 8 summarizes the ratios of the binding signals of anti-CXCR2Nanobodies over an irrelevant control Nanobody.

Human CXCR2 [12] = target: T1, Human CXCR2; experiment: cell-based or functional assay; remark: listed apart in the source
Cynomolgus CXCR2 [13] = target: T2, Cynomolgus CXCR2; experiment: cell-based or functional assay
Human CXCR2 [14] = target: T1, Human CXCR2; experiment: cell-based or functional assay; remark: listed apart in the source
Human CXCR2 [15] = target: T1, Human CXCR2; experiment: FACS competition vs 3 nM FMAT-Blue Gro-α; remark: listed apart in the source
Procedure: (§2) Multivalent anti-CXCR2Nanobodies were titrated against 3 nM FMAT-Blue-labeled Gro-α in the FACS ligand competition assay on human and cynomolgus CXCR2 (Table 14). On human CXCR2, blocking potencies range between double digit nM and sub-nM whereas on cynomolgus CXCR2, they range between single and double digit nM.

Cynomolgus CXCR2 [16] = target: T2, Cynomolgus CXCR2; experiment: FACS competition vs 3 nM FMAT-Blue Gro-α
Procedure: as §2

Human CXCR2 [17] = target: T1, Human CXCR2; experiment: cell-based or functional assay; remark: listed apart in the source
Cynomolgus CXCR2 [18] = target: T2, Cynomolgus CXCR2; experiment: cell-based or functional assay
Human CXCR2 [19] = target: T1, Human CXCR2; experiment: cell-based or functional assay; remark: listed apart in the source
Human CXCR2 [20] = target: T1, Human CXCR2; experiment: cell-based or functional assay; remark: listed apart in the source
Cynomolgus CXCR2 [21] = target: T2, Cynomolgus CXCR2; experiment: cell-based or functional assay
Human CXCR2 [22] = target: T1, Human CXCR2; experiment: FACS hGro-α competition; remark: listed apart in the source
Cynomolgus CXCR2 [23] = target: T2, Cynomolgus CXCR2; experiment: FACS hGro-α competition

Binder | FLIPR hGro-α IC50 (Human CXCR2 [1]) | FLIPR hGro-α IC50 (Cynomolgus CXCR2 [2]) | IC50 (Human CXCR2 [3]) | IC50 (Cynomolgus CXCR2 [4]) | % inhibition of max (Human CXCR2 [5]) | IC50 (Human CXCR2 [5]) | % inhibition of max (Cynomolgus CXCR2 [6]) | IC50 (Cynomolgus CXCR2 [6]) | Human Chemotaxis IC50 (GROα) (Human CXCR2 [7]) | Human WBSC IC50 (rhGROα) (Human CXCR2 [7]) | Cynomologus WBSC IC50 (rhGROα) (Cynomolgus CXCR2 [8]) | FLIPR % inhibition max (Human CXCR2 [9]) | FLIPR IC50 (GRO-α induced calcium release) (Human CXCR2 [9]) | [35S]GTPγS % inhibition max (GRO-α) (Human CXCR2 [9]) | [35S]GTPγS IC50 (GRO-α) (Human CXCR2 [9]) | FLIPR % inhibition max (Cynomolgus CXCR2 [10]) | FLIPR IC50 (GRO-α induced calcium release) (Cynomolgus CXCR2 [10]) | FACS Gro-α competition (% inhibition) (Human CXCR2 [11]) | ratio of binding signal relative to blank control (Human 1to19 peptide) | other results
B1 | 390 nM | 19000 nM | 1.5 nM | 19 nM | – | – | – | – | – | – | – | – | – | – | – | – | – | – | – | –
B2 | 650 nM | 24000 nM | 1.3 nM | 35 nM | 42.7% | 2.07 nM | 64% | 31.6 nM | 212 nM | 29.5 nM | > 100 nM | 100% | 441 nM | 71.3% | 103 nM | 100% | 3850 nM | 38.1% | 58.6 ratio | –
B3 | 6100 nM | 24000 nM | – | 54 nM | – | – | – | – | – | – | – | – | – | – | – | – | – | – | – | –
B4 | – | – | – | – | – | – | – | – | – | – | – | – | – | – | – | – | – | – | – | FLIPR % inhibition of max (Human CXCR2 [12]): 100%; FLIPR IC50 (GRO-α induced calcium release) (Human CXCR2 [12]): 12.3 nM; FLIPR % inhibition of max (Cynomolgus CXCR2 [13]): 100%; FLIPR IC50 (GRO-α induced calcium release) (Cynomolgus CXCR2 [13]): 9.1 nM; IC50 (M) at 5 nM GROα (inhibition of GRO-α, FIG. 2) (Human CXCR2 [14]): 6.53e-10 M; IC50 (M) at 15 nM GROα (inhibition of GRO-α, FIG. 2) (Human CXCR2 [14]): 1.98e-09 M; IC50 (M) at 150 nM GROα (inhibition of GRO-α, FIG. 2) (Human CXCR2 [14]): 6.71e-08 M; % inhibition of max (Human CXCR2 [15]): 99.5%; IC50 (Human CXCR2 [15]): 0.9 nM; % inhibition of max (Cynomolgus CXCR2 [16]): 99%; IC50 (Cynomolgus CXCR2 [16]): 1.82 nM; Human Chemotaxis IC50 (rhGROα) (Human CXCR2 [17]): 0.14 nM; Human WBSC IC50 (rhGROα) (Human CXCR2 [17]): 0.165 nM; Cynomologus WBSC IC50 (rhGROα) (Cynomolgus CXCR2 [18]): 0.26 nM; [35S]GTPγS % inhibition of max (GRO-α) (Human CXCR2 [19]): 100%; [35S]GTPγS IC50 (GRO-α) (Human CXCR2 [19]): 0.809 nM
B5 | – | – | – | – | 93.9% | 17.2 nM | 53% | 64.1 nM | 48.5 nM | 11.6 nM | > 100 nM | 100% | 39.9 nM | 100% | 50.3 nM | 100% | 640 nM | 85.9% | 0.8 ratio | FLIPR hGro-α IC50 (Human CXCR2 [20]): 94 nM; FLIPR hGro-α IC50 (Cynomolgus CXCR2 [21]): 800 nM; IC50 (Human CXCR2 [22]): 12 nM; IC50 (Cynomolgus CXCR2 [23]): 63 nM
